In patent US10174358:

Molecular target: Cy5-EF-Tu E348C (AV) C137A,C255V,E348C (Escherichia coli) (UniProt P0CE48)
Conditions: native tRNA modifications; 3'-aminoacylated with Phe; Cy3 on acp3U47; FRET titration; GTP form, 100 uM GTP, 8 mM Mg, 25 C

Phe-tRNAPhe(Cy3) showed a Kd of 11 nM.
